Assay results taken from patent publication US20230203146A1.

Experiments:
[1] = molecular target: FLAG-tagged human Ang2 (human) (UniProt O15123); experiment: competition ELISA: blocking of FLAG-hAng2 binding to coated hTie2-Fc
[2] = molecular target: FLAG-tagged human Ang2 (human) (UniProt O15123); experiment: as above; remark: listed apart in the source
[3] = molecular target: FLAG-tagged human Ang2 (human) (UniProt O15123); experiment: as above; remark: listed apart in the source
[4] = molecular target: FLAG-tagged mouse Ang2 (mouse) (UniProt O35608); experiment: competition ELISA: blocking of FLAG-mAng2 binding to coated mTie2-Fc
Chain of FLAG-tagged mouse Ang2 (mouse) (O35608 19-496 limits assumed): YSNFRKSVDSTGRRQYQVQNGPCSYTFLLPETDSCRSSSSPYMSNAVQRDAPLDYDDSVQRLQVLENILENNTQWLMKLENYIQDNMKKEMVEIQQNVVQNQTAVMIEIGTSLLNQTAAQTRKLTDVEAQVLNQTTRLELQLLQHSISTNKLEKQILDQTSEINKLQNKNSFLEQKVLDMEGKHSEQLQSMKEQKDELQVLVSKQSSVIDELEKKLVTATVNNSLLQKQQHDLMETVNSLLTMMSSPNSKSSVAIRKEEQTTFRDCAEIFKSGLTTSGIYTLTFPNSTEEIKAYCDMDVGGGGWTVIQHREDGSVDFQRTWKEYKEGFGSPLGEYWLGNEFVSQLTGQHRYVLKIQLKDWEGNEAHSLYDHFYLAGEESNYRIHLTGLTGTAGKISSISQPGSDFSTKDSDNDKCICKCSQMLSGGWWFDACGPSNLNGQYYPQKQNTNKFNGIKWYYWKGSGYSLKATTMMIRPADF

[5] = molecular target: FLAG-tagged human Ang2 (human) (UniProt O15123); experiment: competition ELISA: blocking of FLAG-hAng2 binding to coated hTie2-Fc; remark: listed apart in the source
[6] = molecular target: FLAG-tagged cynomolgus Ang2 (cynomolgus); experiment: competition ELISA: blocking of FLAG-cAng2 binding to coated cTie2-Fc
Chain of FLAG-tagged cynomolgus Ang2 (cynomolgus) (O15123 other isoform, or with tags, fused parts or gaps limits assumed): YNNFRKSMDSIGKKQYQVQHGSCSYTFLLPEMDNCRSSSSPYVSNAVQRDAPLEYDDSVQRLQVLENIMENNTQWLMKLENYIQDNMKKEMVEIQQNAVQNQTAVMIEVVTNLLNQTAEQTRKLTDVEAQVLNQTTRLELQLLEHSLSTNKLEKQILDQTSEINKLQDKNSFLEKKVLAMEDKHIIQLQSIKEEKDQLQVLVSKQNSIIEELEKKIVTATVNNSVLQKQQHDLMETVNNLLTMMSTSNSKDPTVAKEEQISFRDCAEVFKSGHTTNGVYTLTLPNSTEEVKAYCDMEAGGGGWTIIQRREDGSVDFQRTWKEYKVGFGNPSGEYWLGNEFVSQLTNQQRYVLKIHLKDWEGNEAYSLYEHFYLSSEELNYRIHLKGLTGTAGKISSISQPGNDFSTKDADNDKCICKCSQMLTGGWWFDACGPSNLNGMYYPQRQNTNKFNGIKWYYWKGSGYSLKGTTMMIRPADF

[7] = molecular target: FLAG-tagged mouse Ang2 (mouse) (UniProt O35608); experiment: competition ELISA: FLAG-mAng2 binding to coated mTie2-Fc, residual mAng2 detected with anti-FLAG-HRP
[8] = molecular target: FLAG-tagged mouse Ang2 (mouse) (UniProt O35608); experiment: as above; remark: listed apart in the source
[9] = molecular target: FLAG-tagged cynomolgus Ang2 (cynomolgus); experiment: competition ELISA: FLAG-cAng2 binding to coated cTie2-Fc, residual cAng2 detected with anti-FLAG-HRP
[10] = molecular target: FLAG-tagged human Ang2 (human) (UniProt O15123); experiment: competition ELISA: FLAG-hAng2 binding to coated hTie2-Fc, residual hAng2 detected with anti-FLAG-HRP
[11] = molecular target: FLAG-tagged human Ang2 (human) (UniProt O15123); experiment: as above; remark: listed apart in the source
[12] = molecular target: FLAG-tagged human Ang2 (human) (UniProt O15123); experiment: as above; remark: listed apart in the source
[13] = molecular target: FLAG-tagged human Ang2 (human) (UniProt O15123); experiment: as above; remark: listed apart in the source
[14] = molecular target: FLAG-tagged mouse Ang2 (mouse) (UniProt O35608); experiment: competition ELISA: FLAG-mAng2 binding to coated mTie2-Fc, residual mAng2 detected with anti-FLAG-HRP; remark: listed apart in the source

Chain of FLAG-tagged human Ang2 (human) (O15123 19-496): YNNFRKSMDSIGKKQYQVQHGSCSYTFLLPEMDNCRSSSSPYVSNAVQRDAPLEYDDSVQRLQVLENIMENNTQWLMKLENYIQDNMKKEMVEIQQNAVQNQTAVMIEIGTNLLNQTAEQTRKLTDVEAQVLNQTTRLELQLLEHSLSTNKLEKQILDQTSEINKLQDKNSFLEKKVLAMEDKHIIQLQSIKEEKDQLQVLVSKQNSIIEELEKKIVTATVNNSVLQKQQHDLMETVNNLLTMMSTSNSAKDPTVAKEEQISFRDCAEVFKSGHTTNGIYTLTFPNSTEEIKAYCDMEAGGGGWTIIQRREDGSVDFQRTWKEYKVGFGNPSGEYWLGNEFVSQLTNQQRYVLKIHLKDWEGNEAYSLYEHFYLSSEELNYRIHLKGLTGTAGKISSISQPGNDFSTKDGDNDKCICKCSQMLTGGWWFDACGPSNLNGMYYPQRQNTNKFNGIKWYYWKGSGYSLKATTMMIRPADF

- IC50 (read off the curve) [1]: 4 pM
- IC50 (read off the curve) [2]: 5 pM
- IC50 (read off the curve) [3]: 3 pM
- IC50 (read off the curve) [4]: 6 pM
- IC50 (read off the curve) [5]: 0.5 pM
- IC50 (read off the curve) [6]: 1 pM
- IC50 (read off the curve) [7]: 7 pM
- IC50 (read off the curve) [8]: 3 pM
- IC50 (read off the curve) [9]: 10 pM
- IC50 (read off the curve) [10]: 2 pM
- IC50 (read off the curve) [11]: 3 pM
- IC50 (read off the curve) [12]: 6 pM
- IC50 (read off the curve) [13]: 5 pM
- IC50 (read off the curve) [14]: 4 pM
Substance: AMG386 (Fc fusion)
